Experimental data: US20110287001A1, “METHOD OF TREATMENT” (TETRALOGIC PHARMACEUTICALS, priority 2008, published 2011)

Legend:
Experiment in all cases: ATPLITE cell viability, TRAIL and compound X with or without anti-human TNFα antibody
Type in all cases: cell-based
[1] = system: SKOV-3 ovarian cancer cells; conditions: SKOV-3, 48 hours
Method: (§1) Cells were seeded in flat-bottom 96-well plates (clear bottom, white walls) at a concentration of 1×10^4 cells/well and incubated overnight at 37° C., 5% CO2. The following day, cells were stimulated with TRAIL at a concentration ranging from 0.24 ng/ml to 1 μg/ml (4-fold dilutions) in combination with IAP inhibitor compound X at a concentration ranging from 0.01 nM to […] (10-fold dilutions).
(§2) A blocking antibody to human TNFα (R&D Systems, Minneapolis, Minn.) was added to some cultures at a final concentration of 5 μg/ml two hours before the addition of the combination of TRAIL and compound X. Final culture volumes were 100 μl
(§3) After 48 hours, cell viability was determined using the ATPLITE™ assay, an adenosine triphosphate (ATP) monitoring system based on firefly (Photinus pyralis) luciferase (Perkin Elmer, Waltham, Mass.) according to the manufacturer's recommendations. Relative light units (RLU) were measured using an LJL Biosystems Analyst HT plate reader (Molecular Devices, Sunnyvale, Calif.). The percent of surviving cells was calculated as follows: (experimental RLU/control RLU)×100. The control RLU was determined by testing untreated cells.

A375 melanoma cells = conditions: A375, 48 hours
Method: as §1, §2, §3

[2] = system: HCT116 colon cancer cells
Method: as §1, §2, §3

B1: TRAIL: TNF-related apoptosis-inducing ligand (TRAIL), TRAIL receptor agonist (protein, UniProt P50591 1-281, looked up)
Tumor necrosis factor ligand …: MAMMEVQGGPSLGQTCVLIVIFTVLLQSLCVAVTYVYFTNELKQMQDKYSKSGIACFLKEDDSYWDPNDEESMNSPCWQVKWQLRQLVRKMILRTSEETISTVQEKQQNISPLVRERGPQRVAAHITGTRGRSNTLSSPNSKNEKALGRKINSWESSRSGHSFLSNLHLRNGELVIHEKGFYYIYSQTYFRFQEEIKENTKNDKQMVQYIYKYTSYPDPILLMKSARNSCWSKDAEYGLYSIYQGGIFELKENDRIFVSVTNEHLIDMDHEASFFGAFLVG
- single agent-induced cell death [1]: resistant
- single agent killing (A375 melanoma cells): partialy resistant
- single agent-induced cell death ([2]; HCT116, 48 hours): some sensitivity
- surviving cells (percent of control) ([2]; HCT116, TRAIL 1 μg/ml, 48 hours): 40%
